Measured values as given in paper PMC9935906, “Network of hotspot interactions cluster tau amyloid folds” (Nature Communications, 2023).

B1: 306VQIVYK311 peptide (peptide)
peptide: Ac-VQIVYK-NH2
notes: also called WT; source: synthetic peptide, bought: GenScript (≥95% purity)
B2: 275VQIINK280 peptide (peptide)
peptide: Ac-VQIINK-NH2
notes: source: synthetic peptide, bought: GenScript (≥95% purity)
B3: AQIVYK peptide (peptide)
peptide: AQIVYK
notes: Acetyl and amide caps and the supplier (GenScript) are stated only for the ZipperDB-predicted hexapeptides; likely the same here; also called VQIVYK alanine mutant at position one; source: peptide
B4: VQIVAK peptide (peptide)
peptide: VQIVAK
notes: Acetyl and amide caps and the supplier (GenScript) are stated only for the ZipperDB-predicted hexapeptides; likely the same here; also called VQIVYK alanine mutant at position five; source: peptide
B5: VQIVYA peptide (peptide)
peptide: VQIVYA
notes: Acetyl and amide caps and the supplier (GenScript) are stated only for the ZipperDB-predicted hexapeptides; likely the same here; also called VQIVYK alanine mutant at position six; source: peptide
B6: VAIVYK peptide (peptide)
peptide: VAIVYK
notes: Acetyl and amide caps and the supplier (GenScript) are stated only for the ZipperDB-predicted hexapeptides; likely the same here; also called VQIVYK alanine mutant at position two; source: peptide

Biological target: the molecule itself
Test: ThT fluorescence aggregation assay + TEM; peptide alone, 1 mM in 1X PBS, neutral pH, one week at 37 °C with 900 RPM orbital shaking; endpoint ThT (15 µM) and negative-stain TEM; self-assembly into fibrils

Binding result, binds:
B1, B2

Biological target: the molecule itself
Test: ThT fluorescence aggregation assay + TEM; peptide alone, 200 µM in 1X PBS + 25 µM ThT, 37 °C, one week, endpoint ThT; fibrils checked by negative-stain TEM; self-assembly into fibrils

Binding result, binds:
B3, B4, B5, B6
